In patent US20080008707A1, “Denatured collagen peptides and uses thereof” (Cell-Matrix, Inc., priority 2006, published 2008):
Blank lines part the entries; values can stand above or below the molecule they belong to. Square brackets hold non-standard residues; d marks the D form. Ends that are not written are not given here. Hyp = O=C(O)[C@@H]1C[C@@H](O)CN1

How the values were obtained:
[1] = test system: HUI77 binding to denatured collagen IV; assay: Competition ELISA: synthetic peptides blocking HUI77 binding to heat denatured collagen IV; set-up: species or system human; conditions: average of two studies
Description: (§1) The ELISA was conducted as follows: wells of a 96-well microtiter plate (Immulon, 4 HBX flat-bottomed, Thermo Electron Corporation, Waltham, Mass.) were coated with 100 μL/well of dn-collagen IV at 10 μg/mL in Phosphate Buffered Saline (PBS) overnight at 4° C. The plate was washed 3 times (3×) with PBS containing 0.05% (v/v) Tween-20 (PBST) using an automated plate washer.
(§2) The plate was blocked by adding 300 μL/well of 1% BSA (w/v) in PBS for 1 hour at 25° C. followed by washing 3× in PBST as above.
(§3) Solutions of D93 or HUI77 were prepared with various concentrations of peptide or antibody inhibitor and incubate for 15 minutes. D93 or HUI77 was prepared at 200 ng/mL in 1% BSA/PBS.
(§4) For antibody blocking studies using synthetic peptides: peptide inhibitor stock solutions were prepared at 2 mM, 0.2 mM, 0.02 mM, and 0.002 mM in 1% BSA/PBS. 500 μL of a 2 mM peptide solution in 1% BSA/PBS was prepared and diluted 1:10 in 500 μL a total of three times to make peptide inhibitor concentrations.
(§5) 200 μL of D93 or HUI77 at 200 ng/mL solution was combined with 200 μL of peptide or antibody inhibitor solution and incubated for 15 minutes at room temperature.
(§6) D93 or HUI77 with various concentrations of inhibitors (2 mM, 0.2 mM, 0.02 mM, and 0.002 mM) were added to microplate wells and incubated for 1 hour at 25° C. The plate was washed 3× in PBST as above.
(§7) To each microtiter plate well, 100 μL of diluted anti-human IgG or anti-mouse IgM conjugated to horseradish peroxidase (HRP) in PBST was added and incubated for one hour at 25° C.: (a) for D93: Goat anti-human IgG-HRP (Jackson ImmunoResearch, Catalog No. 109-035-088) was used at 1:20,000 and (b) for HUI77: Goat anti-mouse IgM-HRP was used at 1:4,000. Plates were washed 3× in PBST as above.
(§8) Tetramethylbenzidine (TMB) substrate (100 μL; Pierce Chemicals)) was added to wells and the plates were allowed to develop at room temperature for 15 minutes in the dark. Substrate development was stopped by adding 50 μL/well of 2N H2SO4. The microtiter […] plates were read at 450 nm within five minutes of adding the H2SO4. Reactivity was measured with a microplate reader (Molecular Devices, Sunnyvale, Calif.) at a wavelength of 450 nm and analyzed using SOFTMax® PRO4.0 (Molecular Devices). All samples were tested in triplicate.
(§9) Individual peptides with amino acid substitutions and deletions were also synthesized based on the primary and secondary peptide arrays. […] The inhibitory activity of the individual peptides was tested by ELISA as previously described to measure binding of D93 or HUI77 to denatured collagen where peptides and antibodies were prepared at a 2× concentration and pre-incubated for 15 minutes prior to adding to microtiter plates coated with dn-collagen.
(§10) 96-well plates were coated with 100 μL/well of denatured (dn) collagen IV at 10 μg/mL in phosphate buffered saline (PBS) overnight at 4° C. followed by washing the plates in an automated plate washer 3 times in PBS containing 0.05% (v/v) Tween-20 (PBST). Non-specific binding was prevented by blocking the wells by adding 300 μL/well of 1% bovine serum albumin (BSA) (w/v) in PBS for 1 hour (hr) at 25° C. The plates were washed as above.
(§11) Solutions of D93 and HUI77 antibodies were prepared with various concentrations of inhibitor and incubated for 15 minutes. Briefly, 20 mLs of D93 or HUI77 were prepared at 200 ng/mL in 1% BSA/PBS. Solutions of peptide inhibitors (2 mM, 0.2 mM, […]) were prepared in 1% BSA/PBS. Equal volumes of antibodies and peptide inhibitors were combined: 200 μL of D93 or HUI77 (200 ng/mL solution) with 200 μL of each peptide solution.
(§12) 100 μL/well of D93 or HUI77 at 100 ng/mL with various concentrations of inhibitors were added to the wells in triplicate and incubated for 1 hour at 25° C. The plates were washed as described above.
(§13) 100 μL/well of secondary horseradish peroxidase (HRP)-conjugated antibody in PBST was added to each well and incubated for 1 hour (hr) at 25° C. […]

[2] = test system: D93 binding to human denatured-collagen IV; assay: Competition ELISA: synthetic peptides blocking D93 binding to heat denatured collagen IV; conditions: average of two studies, vs 1% BSA/PBS alone
Description: as §1, §2, §3, §4, §5, §6, §7, §8, §9, §10, §11, §12, §13

[3] = biological target: D93, recombinant humanized IgG1 kappa antibody targeting denatured-collagen; assay: competition ELISA on coated human dn-collagen IV
[4] = biological target: HUI77, murine IgM anti-denatured-collagen monoclonal antibody; assay: competition ELISA on coated dn-collagen IV
[5] = peptide inhibitor concentration 10 μM
[6] = peptide inhibitor concentration 100 μM
[7] = peptide inhibitor concentration 1000 μM
[8] = peptide inhibitor concentration 1 μM

D93, recombinant humanized IgG1 kappa antibody targeting denatured-collagen, sequence (heavy, as listed by the source, chain 1 of 2): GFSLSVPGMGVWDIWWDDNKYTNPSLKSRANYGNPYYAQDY
D93, recombinant humanized IgG1 kappa antibody targeting denatured-collagen, sequence (light, as listed by the source, chain 2 of 2): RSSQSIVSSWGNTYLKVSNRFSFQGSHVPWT

Molecule: PGPPGPPGPY (PGP[Hyp]GP[Hyp]GPY) [SEQ ID NO: 28]
% INHIBITION OF BINDING OF HUI77 TO DENATURED COLLAGEN IV [1, 5]: 7%
% INHIBITION OF BINDING OF HUI77 TO DENATURED COLLAGEN IV [1, 6]: 16%
% INHIBITION OF BINDING OF HUI77 TO DENATURED COLLAGEN IV [1, 7]: 86.5%
% INHIBITION OF BINDING OF D93 TO HUMAN DENATURED-COLLAGEN IV [2, 8]: 33.5%
% INHIBITION OF BINDING OF D93 TO HUMAN DENATURED-COLLAGEN IV [2, 5]: 83%
% INHIBITION OF BINDING OF D93 TO HUMAN DENATURED-COLLAGEN IV [2, 6]: 93.5%
% INHIBITION OF BINDING OF D93 TO HUMAN DENATURED-COLLAGEN IV [2, 7]: 93.5%

Molecule: synthetic peptide No. 21, GPPG (SEQ ID NO: 34)
% inhibition of D93 binding to dn-collagen IV, peptide 1 µM [3]: 9.5%
% inhibition of D93 binding to dn-collagen IV, peptide 10 µM [3]: 6.5%
% inhibition of D93 binding to dn-collagen IV, peptide 100 µM [3]: 11%
% inhibition of D93 binding to dn-collagen IV, peptide 1000 µM [3]: 52%
% inhibition of HUI77 binding to dn-collagen IV, peptide 10 µM [4]: 6.5%
% inhibition of HUI77 binding to dn-collagen IV, peptide 100 µM [4]: 9%
% inhibition of HUI77 binding to dn-collagen IV, peptide 1000 µM [4]: 14%

B2: synthetic peptide No. 17, GPPGPPGP (SEQ ID NO: 31) (peptide)
peptide: GPXGPXGP
modifications: hydroxyproline at the P positions marked in Tables 13 and 14; marking lost in this text
% inhibition of D93 binding to dn-collagen IV, peptide 1 µM [3]: 9.5%
% inhibition of D93 binding to dn-collagen IV, peptide 10 µM [3]: 21%
% inhibition of D93 binding to dn-collagen IV, peptide 100 µM [3]: 77%
% inhibition of D93 binding to dn-collagen IV, peptide 1000 µM [3]: 92.5%
% inhibition of HUI77 binding to dn-collagen IV, peptide 10 µM [4]: 7.5%
% inhibition of HUI77 binding to dn-collagen IV, peptide 100 µM [4]: 12%
% inhibition of HUI77 binding to dn-collagen IV, peptide 1000 µM [4]: 44%

Now from value to molecule:

% INHIBITION OF BINDING OF HUI77 TO DENATURED COLLAGEN IV [1, 5]: 10.5%
% INHIBITION OF BINDING OF HUI77 TO DENATURED COLLAGEN IV [1, 6]: 12.5%
% INHIBITION OF BINDING OF HUI77 TO DENATURED COLLAGEN IV [1, 7]: 63%
% INHIBITION OF BINDING OF D93 TO HUMAN DENATURED-COLLAGEN IV [2, 8]: 11.5%
% INHIBITION OF BINDING OF D93 TO HUMAN DENATURED-COLLAGEN IV [2, 5]: 40.5%
% INHIBITION OF BINDING OF D93 TO HUMAN DENATURED-COLLAGEN IV [2, 6]: 87.5%
% INHIBITION OF BINDING OF D93 TO HUMAN DENATURED-COLLAGEN IV [2, 7]: 93.5%
Molecule: PGPPGPPGP (PGP[Hyp]GP[Hyp]GP) [SEQ ID NO: 29]

% inhibition of D93 binding to dn-collagen IV, peptide 1 µM [3]: 7%
% inhibition of D93 binding to dn-collagen IV, peptide 10 µM [3]: 2%
% inhibition of D93 binding to dn-collagen IV, peptide 100 µM [3]: 4.5%
% inhibition of D93 binding to dn-collagen IV, peptide 1000 µM [3]: 24%
% inhibition of HUI77 binding to dn-collagen IV, peptide 10 µM [4]: 3.5%
% inhibition of HUI77 binding to dn-collagen IV, peptide 100 µM [4]: 4.5%
% inhibition of HUI77 binding to dn-collagen IV, peptide 1000 µM [4]: 6%
Molecule: L[Hyp]GT[Hyp]G [synthetic peptide No. 8, LPGTPG (SEQ ID NO: 27)]

% inhibition of D93 binding to dn-collagen IV, peptide 1 µM [3]: 8%
% inhibition of D93 binding to dn-collagen IV, peptide 10 µM [3]: 17%
% inhibition of D93 binding to dn-collagen IV, peptide 100 µM [3]: 64%
% inhibition of D93 binding to dn-collagen IV, peptide 1000 µM [3]: 92.5%
% inhibition of HUI77 binding to dn-collagen IV, peptide 10 µM [4]: 6%
% inhibition of HUI77 binding to dn-collagen IV, peptide 100 µM [4]: 7.5%
% inhibition of HUI77 binding to dn-collagen IV, peptide 1000 µM [4]: 77%
B1: synthetic peptide No. 15, GPPGPPG (SEQ ID NO: 32) (peptide)
peptide: GPXGPXG
modifications: contains hydroxyproline ('where P is hydroxyproline'); positions marked in the tables but lost in this text

% inhibition of D93 binding to dn-collagen IV, peptide 1 µM [3]: 6.5%
% inhibition of D93 binding to dn-collagen IV, peptide 10 µM [3]: 12%
% inhibition of D93 binding to dn-collagen IV, peptide 100 µM [3]: 52.5%
% inhibition of D93 binding to dn-collagen IV, peptide 1000 µM [3]: 90%
% inhibition of HUI77 binding to dn-collagen IV, peptide 10 µM [4]: 3%
% inhibition of HUI77 binding to dn-collagen IV, peptide 100 µM [4]: 8%
% inhibition of HUI77 binding to dn-collagen IV, peptide 1000 µM [4]: 64%
Molecule: L[Hyp]GP[Hyp]G [synthetic peptide No. 16, LPGPPG (SEQ ID NO: 24)]
